Results from patent US20060241040A1 (published 2006).

B1: C-terminally 6×His tagged human MD-2, baculovirus-derived (Sf9 insect cells), purified (ligand)
chain: QKQYWVCNSSDASISYTYCDKMQYPISINVNPCIELKGSKGLLHIFYIPRRDLKQLYFNLYITVNTMNLPKRKEVICRGSDDDYSFCRALKGETVNTTISFSFKGIKFSKGKYKCVVEAISGSPEEMLFCLEFVILHQPNSNHHHHHH
notes: Purified from supernatants (secreted); also called MD-2^6xHis; MD-2^6×His
B2: endogenous soluble MD-2 in serum of healthy human donors (ligand)
chain: QKQYWVCNSSDASISYTYCDKMQYPISINVNPCIELKGSKGLLHIFYIPRRDLKQLYFNLYITVNTMNLPKRKEVICRGSDDDYSFCRALKGETVNTTISFSFKGIKFSKGKYKCVVEAISGSPEEMLFCLEFVILHQPNSN
notes: Natural protein in serum; also called sMD-2; serum MD-2

What was measured:
[1] = target: T1, TLR4:Fc fusion protein (entire extracellular domain of hTLR4, amino acids 1-632, fused to the Fc portion of … (human; mouse, UniProt P01863 98-330 = IgG part); assay: indirect ELISA-like assay: TLR4:Fc captured on protein A coated plate, MD-2 titrated 0.1 to 50 nM, Ni-HRP detection, absorbance at 450 nm; without LPS (dotted line)
T1 construct: domain: C-terminal 233 amino acid Fc portion; Secreted by retrovirally transduced HEK293 cells; also called T4:Fc; TLR4:Fc chimera
Method: FIG. 4A is a line graph of MD-2^6xHis binding to TLR-4:Fc. MD-2^6xHis was added in titrated amounts (0.1 to 50 nM). To control for non-specific binding to protein A, 50 nM of MD-2 was plated in the absence of TLR4:Fc (“50”). […] The apparent […] of this interaction is of ˜12 nM.
To determine the Kd for the interaction between TLR4 and MD-2, an indirect ELISA-like binding assay was developed. Fifty μl of purified TLR4:Fc at 20 μg/ml (FIG. 4A) or at the concentration indicated in FIG. 4B was plated on protein A coated, high-protein binding 96 well plates. […] MD-2 bound to TLR4:Fc was detected using Ni-HRP (1:2,000 in PBS-Tween, Sigma), and developed by incubation with its chromogenic substrate per the manufacturer's instructions (DAKO, Carpinteria, Calif.). Each condition was measured in triplicate; the absorbance of each sample was measured at 450 nm; the results are presented as the average reading±SD.
In FIG. 4A, saturating amounts of TLR4:Fc were adsorbed to protein A coated 96 well plates and purified soluble MD-2 was added in titrated amounts. The 6×His tag present at the C terminus of MD-2 was detected using a Ni based HRP labeled reagent, and the presence of MD-2 bound to TLR4 was detected using a chromogenic substrate. […]

[2] = target: T1, TLR4:Fc fusion protein (entire …); assay: depletion of human serum with TLR4:Fc loaded protein A beads, read out on NF-κB reporter cells (FIG. 6A)
Method: Human serum was collected from healthy volunteers using standard serum Vacutainers™ blood collection tubes (Becton Dickinson) and clotted for 30 minutes at room temperature. The blood clot was removed by centrifugation and serum stored at −20° C. in 1 ml aliquots until use. MD-2 was removed from serum using immunoaffinity techniques using chimeric antibody-like proteins bound to protein A Sepharose™ beads (PAS). Human antibodies can potentially compete with the TLR chimeras for binding sites on protein A beads. Therefore, they were removed from serum by two preclearing steps, of two hours each, with 1/10 the volume of packed PAS beads.
HEK293 cells that had been transduced with retrovirus encoding the TLR:Fc fusion proteins were grown in protein free medium and served as the source of conditioned medium. TLR4:Fc and TLR2:Fc were captured from 50-100 ml of medium using 40 μl of packed PAS/ml for one hour at 4° C. Coated beads were then added to sera that had been precleared with PAS alone for 1 hour at 4° C. Human serum was diluted in DMEM to a final concentration of 20% v/v before use on reporter cells. Before each conjugation/treatment step, the beads were washed with 20% ethanol in PBS followed by equilibration in DMEM. Reconstitution with MD-2 was performed by adding the indicated amounts of recombinant purified MD-2 to the TLR4:Fc depleted stimulating media. […]

T1 sequence (P01863 other isoform, or with tags, fused parts or gaps limits assumed): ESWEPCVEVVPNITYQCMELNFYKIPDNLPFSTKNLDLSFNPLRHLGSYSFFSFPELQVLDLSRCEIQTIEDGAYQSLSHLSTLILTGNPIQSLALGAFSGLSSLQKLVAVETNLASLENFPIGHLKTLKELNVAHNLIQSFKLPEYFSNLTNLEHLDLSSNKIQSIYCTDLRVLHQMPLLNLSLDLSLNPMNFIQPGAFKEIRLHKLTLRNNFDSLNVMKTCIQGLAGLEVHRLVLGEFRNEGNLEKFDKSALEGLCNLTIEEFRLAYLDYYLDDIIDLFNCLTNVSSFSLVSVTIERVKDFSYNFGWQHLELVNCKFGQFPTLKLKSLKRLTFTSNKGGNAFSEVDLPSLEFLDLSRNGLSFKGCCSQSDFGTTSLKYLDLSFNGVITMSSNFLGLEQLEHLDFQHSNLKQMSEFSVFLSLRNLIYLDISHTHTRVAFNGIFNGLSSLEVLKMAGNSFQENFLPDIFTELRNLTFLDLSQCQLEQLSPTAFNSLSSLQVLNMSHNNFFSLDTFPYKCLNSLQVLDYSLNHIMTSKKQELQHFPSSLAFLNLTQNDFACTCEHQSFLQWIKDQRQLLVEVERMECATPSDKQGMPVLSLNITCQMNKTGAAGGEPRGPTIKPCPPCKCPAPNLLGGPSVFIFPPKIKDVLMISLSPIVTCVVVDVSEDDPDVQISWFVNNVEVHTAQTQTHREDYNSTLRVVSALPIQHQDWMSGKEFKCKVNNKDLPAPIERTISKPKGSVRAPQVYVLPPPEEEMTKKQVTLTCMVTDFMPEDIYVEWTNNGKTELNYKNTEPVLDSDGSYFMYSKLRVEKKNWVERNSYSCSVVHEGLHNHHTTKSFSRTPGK

Binder	Kd [1] [nM]	binding result [2]
B1	~12	
B2		binds
